Test results: the DeepSol protein solubility set

Assay: soluble on expression in E. coli; label from the status in PepcDB or PDB records

| Sequence | soluble on expression in E. coli |
| --- | --- |
| MEVKELERDKNRVVLEYVFGAEEIAQAEDKAVRYLNQRVEIPGFRKGRIPKNVLKMKLGEEFQEYTLDFLMDLIPDTLKDRKLILSPIVTERELKDVTARVVVEVHEEPEVRIGDISKIEVEKVDEEKVLEKYVERRIEDLRESHALLEPKEGPAEAGDLVRVNMEVYNEEGKKLTSREYEYVISEDEDRPFVKDLVGKKKGDVVEIEREYEGKKYTYKLEVEEVYKRTLPEIGDELAKSVNNEFETLEQLKESLKKEGKEIYDVEMKESMREQLLEKLPEIVEIEISDRTLEILVNEAINRLKREGRYEQIVSSYESEEKFREELKERILDDIKRDRVIEVLAQEKGISVNDEELEKEAEELAPFWGISPDRAKSLVKARQDLREELRWAILKRKVLDLLLQEVKVKVVEPKGEGDDSEGKEDNLEHHHHHH | soluble |
| MSPVSARFEPAALRPDLARIAGWIEPGSRVLDLGCGDGALLAYLRDHRQVRGAGVEIDDNYVIACVQRGVEVIQQNLEDGLALFDDQQFDTVVLSQTLQSMHRTEHILREMARVARHGVVSFPNFGYWPHGWSILRGRMPVTGQMPYQWYNTPNIHLCTLRDFEDLAGTLGLRILQRATFNEGREVRVFPSWRSTLALYRFAASLEHHHHHH | not soluble |
| MQNRQVANATKVAVAGASGYAGGEILRLLLGHPAYADGRLRIGALTAATSAGSTLGEHHPHLTPLAHRVVEPTEAAVLGGHDAVFLALPHGHSAVLAQQLSPETLIIDCGADFRLTDAAVWERFYGSSHAGSWPYGLPELPGARDQLRGTRRIAVPGCYPTAALLALFPALAADLIEPAVTVVAVSGTSGAGRAATTDLLGAEVIGSARAYNIAGVHRHTPEIAQGLRAVTDRDVSVSFTPVLIPASRGILATCTARTRSPLSQLRAAYEKAYHAEPFIYLMPEGQLPRTGAVIGSNAAHIAVAVDEDAQTFVAIAAIDNLVKGTAGAAVQSMNLALGWPETDGLSVVGVAP | soluble |
| MTADKLVFFVNGRKVVEKNADPETTLLAYLRRKLGLSGTKLGCGEGGCGACTVMLSKYDRLQNKIVHFSANACLAPICSLHHVAVTTVEGIGSTKTRLHPVQERIAKSHGSQCGFCTPGIVMSMYTLLRNQPEPTMEEIENAFQGNLCRCTGYRPILQGFRTFARDGGCCGGDGNNPNCCMNQKKDHSVSLSPSLFKPEEFTPLDPTQEPIFPPELLRLKDTPRKQLRFEGERVTWIQASTLKELLDLKAQHPDAKLVVGNTEIGIEMKFKNMLFPMIVCPAWIPELNSVEHGPDGISFGAACPLSIVEKTLVDAVAKLPAQKTEVFRGVLEQLRWFAGKQVKSVASVGGNIITASPISDLNPVFMASGAKLTLVSRGTRRTVQMDHTFFPGYRKTLLSPEEILLSIEIPYSREGEYFSAFKQASRREDDIAKVTSGMRVLFKPGTTEVQELALCYGGMANRTISALKTTQRQLSKLWKEELLQDVCAGLAEELHLPPDAPGGMVDFRCTLTLSFFFKFYLTVLQKLGQENLEDKCGKLDPTFASATLLFQKDPPADVQLFQEVPKGQSEEDMVGRPLPHLAADMQASGEAVYCDDIPRYENELSLRLVTSTRAHAKIKSIDTSEAKKVPGFVCFISADDVPGSNITGICNDETVFAKDKVTCVGHIIGAVVADTPEHTQRAAQGVKITYEELPAIITIEDAIKNNSFYGPELKIEKGDLKKGFSEADNVVSGEIYIGGQEHFYLETHCTIAVPKGEAGEMELFVSTQNTMKTQSFVAKMLGVPANRIVVRVKRMGGGFGGKVTRSTVVSTAVALAAYKTGRPVRCMLDRDEDMLITGGRHPFLARYKVGFMKTGTVVALEVDHFSNVGNTQDLSQSIMERALFHMDNCYKIPNIRGTGRLCKTNLPSNTAFRGFGGPQGMLIAECWMSEVAVTCGMPAEEVRRKNLYKEGDLTHFNQKLEGFTLPRCWEECLASSQYHARKSEVDKFNKENCWKKRGLCIIPTKFGISFTVPFLNQAGALLHVYTDGSVLLTHGGTEMGQGLHTKMVQVASRALKIPTSKIYISETSTNTVPNTSPTAASVSADLNGQAVYAACQTILKRLEPYKKKNPSGSWEDWVTAAYMDTVSLSATGFYRTPNLGYSFETNSGNPFHYFSYGVACSEVEIDCLTGDHKNLRTDIVMDVGSSLNPAIDIGQVEGAFVQGLGLFTLEELHYSPEGSLHTRGPSTYKIPAFGSIPIEFRVSLLRDCPNKKAIYASKAVGEPPLFLAASIFFAIKDAIRAARAQHTGNNVKELFRLDSPATPEKIRNACVDKFTTLCVTGVPENCKPWSVRV | soluble |
| MPAIEVIRSAKRTKTVQARIVDGQIQVRIPARMSKAEEEKAVGEIVAKLKRRTQSAVSSDADLIERAHKLNKTVLEGRARVESIRWVSNQKGRWGSCTVATAEIRISDRLKHVPDYVLDAVLVHELTHTFIAGHSAEFWEWADKTPLAERAKGYLEAYQRWGLEHHHHHH | soluble |
| MGSDKIHHHHHHMKIAFDVDVIKDLGITRMVHQVAEWGYKYIEQSPHPQINPFYKHPRASREIMAEYKQALRDTGLELSSFICVYRWSGPDELRRQAAVKNWKRLVEIAVEMGVQVINTEFSGDPNQPEICDEMFYRSMEELLPIFEREGIRVEIQAHPWDFCEENNETVDIVKSFRSDNVKYVYSVPHTFFYDKGVGDVASMLRYAGSDLSHVLIADTRNHTKHCRYIVNPPGVDAVVHQHVGVGEGDVDFDALFRTLREMKFAEQTFKVGGAPIVATSLFGYPEKMKYQAVETRELIERELLRR | not soluble |
| MSIGVVLAKITAEFPDVTVSKIRYLESEGLITPQRTSTGYRRFTQDDVERLRYILVTQRDNYLPLKVIREQLEAMDSGAVTPISRGSDNAPLISPESFRTSVVTRLSDSDVAARAQVSESEVSELAEAGLIRPDSSGFFTADDVQVVSVAVQLKEFGFDVRHLKSLRNLASRHADLISRATTPVARSQSESARQRAEEMSQQLSALVVSLNATMLRSMLRDELNR | not soluble |
| MKPEDFRASATRPFTGEEYLASLRDDREIYIYGDRVKDVTSHPAFRNAAASMARLYDALHDPQSKEKLCWETDTGNGGYTHKFFRYARSADELRQQRDAIAEWSRLTYGWMGRTPDYKAAFGSALGANPGFYGRFEDNAKTWYKRIQEACLYLNHAIVNPPIDRDKPVDQVKDVFISVDEEVDGGIVVSGAKVVATNSALTHYNFVGQGSAQLLGDNTDFALMFIAPMNTPGMKLICRPSYELVAGIAGSPFDYPLSSRFDENDAILVMDKVFIPWENVLIYRDFERCKQWFPQGGFGRLFPMQGCTRLAVKLDFITGALYKALQCTGSLEFRGVQAQVGEVVAWRNLFWSLTDAMYGNASEWHGGAFLPSAEALQAYRVLAPQAYPEIKKTIEQVVASGLIYLPSGVRDLHNPQLDKYLSTYCRGSGGMGHRERIKILKLLWDAIGSEFGGRHELYEINYAGSQDEIRMQALRQAIGSGAMKGMLGMVEQCMGDYDENGWTVPHLHNPDDINVLDRIRQ | not soluble |
| MGSDKIHHHHHHMAKNKALFECQACGNQQSKWLGKCPDCGAWDSFVELKAEQIKVLKELAQVSMKTSEAVCIEDVELEHFTRYSTDDNELDLVLGGGLVEGSLVLIGGSPGVGKSTLLLKIASNLAKQGKKVLYVSGEESKAQIKLRADRLEANTPNLFLLTELCLENILEELHKKDYSILIVDSIQTLYSNKITSAAGSITQVREITFELMRVSKAYNISTFIIGHITKEGAIAGPRVLEHMVDVVLYFEGDATKEIRLLRGFKNRFGGTNEVGIFEMTAKGLISAKDLANRFFTRGKAISGSALGVVMEGSRALVLEVQALVCESSYPKRSATGYEKNRLDMLLALLERKLEIPLGHYDVFVNISGGVKVSETAADLAVVAAIISSFKNRPLSKDSIFIGELSLNGEIREVFSLDTRLKEAKMQKFKNAIVPSKPLEDIGLKCFVAKELSQVLEWM | not soluble |
| LLLLLPQGGDVRGGPGVREPGQAPQDRGGRDRLLGRGERESPGSDASGGERYSSGGGDGGDGDGGSGGGGDGEEGEGGEEGDEGDGDEGGSGGDESGSGGGPRSMPLSTEGGGSHHKVSVSPVVHVRGLCESVVEADLVEALEKFGTICYVMMMPFKRQALVEFENIDSAKECVTFAADVPVYIAGQQAFFNYSTSKRITRPGNTDDPSGGNKVLLLSIQNPLYPITVDVLYTVCNPVGKVQRIVIFKRNGIQAMVEFESVLCAQKAKAALNGADIYAGCCTLKIEYARPTRLNVIRNDNDSWDYTKPYLGRRDRGKGRQRQAILGDHPSSFRHDGYGSHGPLLPLPSRYRMGSRDTPELVAYPLPQASSSYMHGGSPSGSVVMVSGLHQLKMNCSRVFNLFCLYGNIEKVKFMKTIPGTALVEMGDEYAVERAVTHLNNVKLFGKRLNVCVSKQHSVVPSQIFELEDGTSSYKDFAMSKNNRFTSAGQASKNIIQPPSCVLHYYNVPLCVTEETFTKLCNDHEVLPFIKYKVFDAKASAKTLSGLLEWKCKTDAVEALTALNHYQIRVPNGSNPYTLKLCFSTSSHL | soluble |
| VVIPSPCCMFFVSKRIPENRVVSYQLSSRSTCLKAGVIFTTKKGQQSCGDPKQEWVQRYMKNLDAKQKKASPR | soluble |
| PKIENPILIEGYPGIGLVGHIAANFLAKELKMEVIGYVESSFIPPMSLILEGKPNPPLRFYGKDNIIIAVADIYLPPTLINEIAKEIANYLEQNKAEKVISLGGMGIGIFKDKFEVWGVGGTEEENKELQDLGVKILEYGSISGMSGKLLWEASRRGLKSYVILGETFGDRPDPRAAANVVEVLDRMLTLNVSVEPLLKEAEMIEEQLRKMHEQMEKARRSVEKQYETMYL | not soluble |
| GSPIPHHDEKTWNVGSSNRNKAENLLRGKRDGTFLVRESSKQGCYACSVVVDGEVKHCVINKTATGYGFAEPYNLYSSLKELVLHYQHTSLVQHNDSLNVTLAYPVYAQQRR | soluble |
| MKYFEFTFHTSPCTETVNDVLAAVLGEAGFESFVESEGGLTAYIQQALCDENTIKNAITEFPLPDTEITYTYVEAEDKDWNEEWEKNFFQPIVIDNRCVIHSTFHKDVPQATYDIVINPQMAFGTGHHETTSLIIGELLDNELKDKSLLDMGCGTSILAILARMRGARPCIAIDIDEWCVRNSIENIELNHVDDIAVSQGDASSLVGKGPFDIIIANINRNILLNDMKQYVACMHPGSELYMSGFYVDDIPFIRREAEKNGLTFVHHKEKNRWAAVKFTY | not soluble |
| MDSSNPSSLPLEKSSGNVQKGKLLNIWSRCIAQPSSFLGSSISRFWANADIKNRVCSAAIGRVNFVSKCLKKFPEVSLSCNISASLSLNTGKEKVKNEDLEKQERCHKVAMIEYEIQNLERQLKKRQF | not soluble |
| MGSDKIHHHHHHKDTKWVDVPTGTPPEGSVTGKPGETEEPDDPDPTDKTFINCSYIRGDFFETNRISGASMGACNDLIYLTARPYADGDLTFDLPVNDATLTGAATYAASYNGRNGVLKLDGTGKMNAGDGLLHSPDGAFKKFTFGTYIYVSEWVDGACLFKKVDGGSVVIAFQLGATEGNLKLTVGSATATVTNSALKSGAWHYVAVTYDGGAAKLYIDTNNTATDFTGSLPASVPNTRADFVMGENLKGYLDETFVNSLLMGTLGRNPISFDNWNNTKTLAYWKYDDAAKPGKDSHTWAIRLEQIRTALNGQAGDRKIRLGIAGGEWLKMVGNATARTNFANNVKKVIEQYNLDGADLDFEWAYSGTDLSNYSKAIVQLREVLGKDVFLTVSLHPVSYKISAEAIAAVDFISLQCYGPSVELFSMERFKSDGKAAVDYGIPQDKLVMGVPFYGTTGTAGEQAAYFDLVGKGNLTNTSADTWSYEGKNYTLNSQNTIRQKTQYVCENGFGGIMSWDLATDVDVTHEMSLLKAVKEELDYYANPTVE | not soluble |
| LQMTQSPSFLSASVGDRVSITCRASQDIQKFLAWYQLTPGDAPKLLMYSASTLQSGVPSRFSGSGSGTEFTLTISGLQPEDFATYYCQHLKRYPYTFGQGTKLEISRTVAAPSVFIFPPSDEQLKSGTASVVCLLNNFYPREAKVQWKVDNALQSGNSQESVTEQDNKDSTYSLSSTLTLSKADYEKHKVYACEVTHQGLSSPVTKSFNRGEC | soluble |
